Assay results taken from patent US20060029603A1 (GlaxoSmithKline, published 2006).
Where two headings read alike, the source gives them in different places.

Tests used:
GST-human NOGO-A56 [1] = biological target: T1, GST-human NOGO-A56 (human, UniProt P08515 1-218 = GST); assay: ELISA, coated GST-human NOGO-A56, transfection supernatant, anti-human kappa-HRP, OD 490 nm
T1 construct: GST-tagged fusion expressed in E. coli BL21 and purified on glutathione-sepharose; coated on ELISA plates or amine-coupled to a CM5 chip; also called hNOGO; recombinant human NOGO
T1 sequence (P08515 1-218, tags or fused parts left off): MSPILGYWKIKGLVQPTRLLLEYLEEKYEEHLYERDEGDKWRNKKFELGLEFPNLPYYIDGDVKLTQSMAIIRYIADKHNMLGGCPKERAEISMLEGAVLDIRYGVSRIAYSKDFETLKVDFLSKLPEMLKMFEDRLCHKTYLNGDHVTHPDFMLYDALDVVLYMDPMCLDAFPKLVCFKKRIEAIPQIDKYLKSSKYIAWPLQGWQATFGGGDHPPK
Method: (§1) GST-human NOGO-A56 (SEQ ID: 76) at 1 μg/ml in PBS was coated onto Nunc Immunosorp plates (100 μl per well) at 4° C. overnight. Wells were rinsed once with TBS+0.05% Tween (TBST) then incubated with 2% BSA in TBST to block non-specific binding sites at room temperature for 1 hour. Antibodies were diluted in TBST+2% BSA to 10 μg/ml and 1/2 dilutions made from this. Antibodies were added to wells in duplicate and incubated at room temperature for 1 hour. Wells were washed three times with TBST then incubated with anti-human kappa peroxidase conjugate (1:2000) for 1 hour. The wells were washed three times with TBST and then incubated with 100 μl OPD peroxidase substrate (Sigma) per well for 10 minutes. The colour reaction was stopped by the addition of 25 μl concentrated H₂SO₄. Optical density at 490 nm was measured using a plate reader. Background values read from wells with no antibody were subtracted.

GST-human NOGO-A56 [2] = biological target: T1, GST-human NOGO-A56; assay: SPR (Biacore) off-rate ranking, CHO-K1 transient supernatant over GST-human NOGO-A56 chip; single experiment
Method: (§2) hNOGO (GST-human NOGO-A56) was immobilised to a CM5 chip by primary amine coupling using the Biacore Wizard program designed for targeted immobilisation levels. The CM5 sensor surface was activated by passing a solution of 50 mM N-hydroxy-succinimide (NHS) and 200 mM N-ethyl-N′-dimethylaminopropyl […] (EDC). Then hNOGO in sodium acetate buffer, pH5.0 or pH 4.5, was passed over the chip and immobilised. After immobilisation was complete any still activated esters were blocked by an injection of 1M ethanolamine hydrochloride, pH8.5.
(§3) The hNOGO chip was prepared as for kinetic analysis. Cell supernatants where taken directly from transient transfections of CHO-K1 cells. These were passed directly over the sensor surface and the interaction measured. A mock transfected cell supernatant was used for double referencing to remove any artefacts due to the tissue culture media. All runs were referenced against a blanked sensor surface (one that had been activated and blocked as described earlier but had no addition of ligand). Analysis of binding was carried out using the BIAevaluation kinetic analysis software version 4.1.

GST-human NOGO-A56 [3] = biological target: T1, GST-human NOGO-A56; assay: SPR (Biacore 3000), GST-human NOGO-A56 on CM5, antibody as analyte; single experiment
Method: (§4) The binding kinetics of the anti-NOGO monoclonal antibody (mAb) to recombinantly expressed human NOGO-A (GST-human NOGO-A56) was analysed using the Biacore3000 biosensor. The hNOGO-A chip was prepared as follows:
as §2
(§5) The anti-NOGO mAbs were diluted down in HBS-EP (10 mM HEPES, pH 7.4, 150 mM NaCl, 3 mM EDTA, and 0.005% P-20 surfactant) and binding studies were carried out at range of defined antibody concentrations. All runs were referenced against a blanked sensor surface (one that had been activated and blocked as described earlier but had no addition of ligand). Analysis of binding was carried out using the BIAevaluation kinetic analysis software version 4.1. Biacore analysis of other antibodies of the invention essentially followed the same protocol as described herein.

GST-human NOGO-A56 [4] = biological target: T1, GST-human NOGO-A56; assay: SPR (Biacore 3000), GST-human NOGO-A56 amine-coupled to CM5, antibody as analyte; mean (SD) of four experiments
Method: as §4, §2, §5

GST-human NOGO-A56 [5] = biological target: T1, GST-human NOGO-A56; assay: SPR (Biacore) off-rate ranking, CHO-K1 transient supernatant over GST-human NOGO-A56 chip; mean (SD) of three runs
Method: as §2, §3

GST-human NOGO-A56 [6] = biological target: T1, GST-human NOGO-A56; assay: ELISA, coated GST-human NOGO-A56, transfection supernatant, anti-human kappa-HRP, OD 490 nm; remark: listed apart in the source
Method: as §1

GST-human NOGO-A56 [7] = biological target: T1, GST-human NOGO-A56; assay: as above; remark: listed apart in the source
Method: as §1

GST-human NOGO-A56 [8] = biological target: T1, GST-human NOGO-A56; assay: as above; remark: listed apart in the source
Method: as §1

GST-human NOGO-A56 [9] = biological target: T1, GST-human NOGO-A56; assay: as above; remark: listed apart in the source
Method: as §1

GST-human NOGO-A56 [10] = biological target: T1, GST-human NOGO-A56; assay: SPR (Biacore 3000), GST-human NOGO-A56 on CM5, antibody as analyte; single experiment; remark: listed apart in the source
Method: as §2, §5

GST-human NOGO-A56 [11] = biological target: T1, GST-human NOGO-A56; assay: ELISA, coated GST-human NOGO-A56, transfection supernatant, anti-human kappa-HRP, OD 490 nm; remark: listed apart in the source
Method: as §1

B1: H17L13 (antibody, human IgG1, kappa)
heavy: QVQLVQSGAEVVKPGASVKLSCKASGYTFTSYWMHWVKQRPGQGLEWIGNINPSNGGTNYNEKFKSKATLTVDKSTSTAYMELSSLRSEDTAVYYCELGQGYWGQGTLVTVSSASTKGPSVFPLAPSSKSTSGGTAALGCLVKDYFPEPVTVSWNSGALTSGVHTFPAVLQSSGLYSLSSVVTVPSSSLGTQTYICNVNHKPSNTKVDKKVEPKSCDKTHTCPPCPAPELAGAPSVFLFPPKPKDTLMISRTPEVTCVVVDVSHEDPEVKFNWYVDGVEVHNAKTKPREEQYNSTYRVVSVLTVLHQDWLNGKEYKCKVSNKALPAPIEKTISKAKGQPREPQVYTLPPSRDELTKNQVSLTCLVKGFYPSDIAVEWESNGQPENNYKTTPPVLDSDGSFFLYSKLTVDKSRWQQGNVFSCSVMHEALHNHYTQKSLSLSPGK
light: DIVMTQSPLSLPVTLGQPASISCRSSKSLLYKDGKTYLNWFQQRPGQSPQLLIYLMSTRASGVPDRFSGGGSGTDFTLKISRVEAEDVGVYYCQQLVEYPLTFGQGTKLEIKRTVAAPSVFIFPPSDEQLKSGTASVVCLLNNFYPREAKVQWKVDNALQSGNSQESVTEQDSKDSTYSLSSTLTLSKADYEKHKVYACEVTHQGLSSPVTKSFNRGEC
notes: Tested as CHO-K1 supernatant
GST-human NOGO-A56 [1]
  EC50 (read off the curve): ~0.06 µg/mL
GST-human NOGO-A56 [2]
  koff: 0.00931 s⁻¹

B2: H16L13 (antibody, human IgG1, kappa)
heavy: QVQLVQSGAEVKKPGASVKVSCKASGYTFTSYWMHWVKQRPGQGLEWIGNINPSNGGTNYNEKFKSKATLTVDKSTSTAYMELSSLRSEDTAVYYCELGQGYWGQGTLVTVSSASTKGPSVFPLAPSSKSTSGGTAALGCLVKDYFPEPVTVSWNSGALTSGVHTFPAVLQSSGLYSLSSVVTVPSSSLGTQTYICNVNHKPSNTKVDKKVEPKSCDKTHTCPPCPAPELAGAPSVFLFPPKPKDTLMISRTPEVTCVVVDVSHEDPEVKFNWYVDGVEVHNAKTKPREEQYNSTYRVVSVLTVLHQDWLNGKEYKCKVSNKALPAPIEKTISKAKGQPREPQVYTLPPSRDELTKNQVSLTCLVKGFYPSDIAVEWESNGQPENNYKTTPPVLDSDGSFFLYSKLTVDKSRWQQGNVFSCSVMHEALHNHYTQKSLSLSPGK
light: DIVMTQSPLSLPVTLGQPASISCRSSKSLLYKDGKTYLNWFQQRPGQSPQLLIYLMSTRASGVPDRFSGGGSGTDFTLKISRVEAEDVGVYYCQQLVEYPLTFGQGTKLEIKRTVAAPSVFIFPPSDEQLKSGTASVVCLLNNFYPREAKVQWKVDNALQSGNSQESVTEQDSKDSTYSLSSTLTLSKADYEKHKVYACEVTHQGLSSPVTKSFNRGEC
notes: Tested as CHO-K1 supernatant
GST-human NOGO-A56 [1]
  EC50 (read off the curve): ~0.08 µg/mL
GST-human NOGO-A56 [2]
  koff: 0.00907 s⁻¹

B3: H1L11 (antibody, human IgG1, kappa, V domains shown)
VH: QVQLVQSGAEVKKPGASVKVSCKASGYTFTSYWMHWVRQAPGQGLEWMGNINPSNGGTNYNEKFKSRVTMTRDTSTSTVYMELSSLRSEDTAVYYCELGQGYWGQGTLVTVSS
VL: DIVITQSPLSLPVTLGQPASISCRSSKSLLYKDGKTYLNWFQQRPGQSPQLLIYLMSTRASGVPDRFSGGGSGTDFTLKISRVEAEDVGVYYCQQLVEYPLTFGQGTKLEIKR
notes: Earlier humanised 2A10
GST-human NOGO-A56 [3]
  Kd: 21.3 nM
  koff: 0.0284 s⁻¹
  kon: 1.33e+06 M⁻¹ s⁻¹
GST-human NOGO-A56 [4]
  Kd: 18.6 nM
  koff: 0.0314 s⁻¹
  kon: 1.73e+06 M⁻¹ s⁻¹
GST-human NOGO-A56 [5]
  koff: 0.0403 s⁻¹

B4: H16L18 (antibody, human IgG1, kappa)
heavy: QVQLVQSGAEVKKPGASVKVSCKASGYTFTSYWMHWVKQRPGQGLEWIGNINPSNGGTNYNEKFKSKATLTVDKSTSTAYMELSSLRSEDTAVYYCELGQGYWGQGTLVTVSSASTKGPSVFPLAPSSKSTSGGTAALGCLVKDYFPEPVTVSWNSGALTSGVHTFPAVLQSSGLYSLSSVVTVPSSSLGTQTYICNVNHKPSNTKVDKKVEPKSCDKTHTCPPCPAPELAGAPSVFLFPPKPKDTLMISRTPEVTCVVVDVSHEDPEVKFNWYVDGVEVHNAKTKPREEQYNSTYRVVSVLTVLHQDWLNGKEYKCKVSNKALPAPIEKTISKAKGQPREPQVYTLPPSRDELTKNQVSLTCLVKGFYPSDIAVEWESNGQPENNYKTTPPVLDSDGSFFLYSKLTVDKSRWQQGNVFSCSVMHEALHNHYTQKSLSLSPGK
light: DIVMTQDPLSNPVTLGQPVSISCRSSKSLLYKDGKTYLNWFLQRPGQSPQLLIYLMSTRASGVSDRFSGSGSGTDFTLKISRVEAEDVGVYYCQQLVEYPLTFGQGTKLEIKRTVAAPSVFIFPPSDEQLKSGTASVVCLLNNFYPREAKVQWKVDNALQSGNSQESVTEQDSKDSTYSLSSTLTLSKADYEKHKVYACEVTHQGLSSPVTKSFNRGEC
notes: Humanised 2A10; Human gamma1 mutated constant region and human kappa; also called H16L18 FL
GST-human NOGO-A56 [6]
  EC50 (read off the curve): ~0.4 µg/mL
GST-human NOGO-A56 [7]
  EC50 (read off the curve): ~0.03 µg/mL
GST-human NOGO-A56 [8]
  EC50 (read off the curve): ~0.06 µg/mL
GST-human NOGO-A56 [1]
  EC50 (read off the curve): ~0.04 µg/mL
GST-human NOGO-A56 [4]
  Kd: 1.33 nM
  koff: 0.00552 s⁻¹
  kon: 4.18e+06 M⁻¹ s⁻¹
GST-human NOGO-A56 [5]
  koff: 0.00609 s⁻¹

B5: H15L18 (antibody, human IgG1, kappa, V domains shown)
VH: QVQLVQSGAEVVKPGASVKLSCKASGYTFTSYWMHWVKQRPGQGLEWIGNINPSNGGTNYNEKFKSKATLTVDTSSSTAYMELSSLRSEDSAVYYCELGQGYWGQGTLVTVSS
VL: DIVMTQDPLSNPVTLGQPVSISCRSSKSLLYKDGKTYLNWFLQRPGQSPQLLIYLMSTRASGVSDRFSGSGSGTDFTLKISRVEAEDVGVYYCQQLVEYPLTFGQGTKLEIKR
notes: Tested as CHO-K1 supernatant
GST-human NOGO-A56 [7]
  EC50 (read off the curve): ~0.04 µg/mL
GST-human NOGO-A56 [2]
  koff: 0.00594 s⁻¹

B6: H17L18 (antibody)
heavy: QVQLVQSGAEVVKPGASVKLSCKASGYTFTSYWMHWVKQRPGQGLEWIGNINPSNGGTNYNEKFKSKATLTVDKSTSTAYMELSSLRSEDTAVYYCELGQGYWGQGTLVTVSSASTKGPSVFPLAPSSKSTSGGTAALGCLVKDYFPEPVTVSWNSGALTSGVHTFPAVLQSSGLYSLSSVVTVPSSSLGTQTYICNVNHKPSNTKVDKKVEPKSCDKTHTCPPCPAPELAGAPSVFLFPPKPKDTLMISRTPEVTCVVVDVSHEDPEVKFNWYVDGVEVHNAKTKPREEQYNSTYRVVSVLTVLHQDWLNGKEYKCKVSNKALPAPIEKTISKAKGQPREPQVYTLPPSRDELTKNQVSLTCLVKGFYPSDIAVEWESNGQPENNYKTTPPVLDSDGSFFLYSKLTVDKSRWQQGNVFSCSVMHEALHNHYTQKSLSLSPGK
light: DIVMTQDPLSNPVTLGQPVSISCRSSKSLLYKDGKTYLNWFLQRPGQSPQLLIYLMSTRASGVSDRFSGSGSGTDFTLKISRVEAEDVGVYYCQQLVEYPLTFGQGTKLEIKRTVAAPSVFIFPPSDEQLKSGTASVVCLLNNFYPREAKVQWKVDNALQSGNSQESVTEQDSKDSTYSLSSTLTLSKADYEKHKVYACEVTHQGLSSPVTKSFNRGEC
notes: copies: 2 + 2
GST-human NOGO-A56 [9]
  EC50 (read off the curve): ~0.1 µg/mL

B7: H15L13 (antibody, human IgG1, kappa, V domains shown)
VH: QVQLVQSGAEVVKPGASVKLSCKASGYTFTSYWMHWVKQRPGQGLEWIGNINPSNGGTNYNEKFKSKATLTVDTSSSTAYMELSSLRSEDSAVYYCELGQGYWGQGTLVTVSS
VL: DIVMTQSPLSLPVTLGQPASISCRSSKSLLYKDGKTYLNWFQQRPGQSPQLLIYLMSTRASGVPDRFSGGGSGTDFTLKISRVEAEDVGVYYCQQLVEYPLTFGQGTKLEIKR
notes: Tested as CHO-K1 supernatant
GST-human NOGO-A56 [8]
  EC50 (read off the curve): ~0.05 µg/mL
GST-human NOGO-A56 [2]
  koff: 0.00965 s⁻¹

B8: H18L18 (antibody, human IgG1, kappa, V domains shown)
VH: QVQLVQSGAEVVKPGASVKLSCKASGYTFTSYWMHWVKQRPGQGLEWIGNINPSNGGTNYNEKFKSKATLTVDKSSSTAYMELSSLRSEDSAVYYCELGQGYWGQGTLVTVSS
VL: DIVMTQDPLSNPVTLGQPVSISCRSSKSLLYKDGKTYLNWFLQRPGQSPQLLIYLMSTRASGVSDRFSGSGSGTDFTLKISRVEAEDVGVYYCQQLVEYPLTFGQGTKLEIKR
notes: Tested as CHO-K1 supernatant
GST-human NOGO-A56 [9]
  EC50 (read off the curve): ~0.1 µg/mL
GST-human NOGO-A56 [2]
  koff: 0.0058 s⁻¹

B9: H6L13 (antibody, human IgG1, kappa, V domains shown)
VH: QVQLVQSGAEVKKPGASVKVSCKASGYTFTSYWMHWVRQAPGQGLEWIGNINPSNGGTNYNEKFKSRATMTRDTSTSTAYMELSSLRSEDTAVYYCELGQGYWGQGTLVTVSS
VL: DIVMTQSPLSLPVTLGQPASISCRSSKSLLYKDGKTYLNWFQQRPGQSPQLLIYLMSTRASGVPDRFSGGGSGTDFTLKISRVEAEDVGVYYCQQLVEYPLTFGQGTKLEIKR
notes: Humanised 2A10; Human gamma1 mutated constant region and human kappa; also called H6L13 FL
GST-human NOGO-A56 [10]
  Kd: 7.9 nM
  koff: 0.0233 s⁻¹
  kon: 2.95e+06 M⁻¹ s⁻¹
GST-human NOGO-A56 [3]
  Kd: 7.3 nM
  koff: 0.013 s⁻¹
  kon: 1.77e+06 M⁻¹ s⁻¹
GST-human NOGO-A56 [9]
  EC50 (read off the curve): ~0.2 µg/mL
GST-human NOGO-A56 [4]
  Kd: 7.68 nM
  koff: 0.0137 s⁻¹
  kon: 1.82e+06 M⁻¹ s⁻¹
GST-human NOGO-A56 [5]
  koff: 0.0173 s⁻¹

B10: H14L16 (antibody, human IgG1, kappa, V domains shown)
VH: QVQLVQSGAEVVKPGASVKLSCKASGYTFTSYWMHWVKQAPGQGLEWIGNINPSNGGTNYNEKFKSRATLTRDTSTSTAYMELSSLRSEDTAVYYCELGQGYWGQGTLVTVSS
VL: DIVMTQSPLSNPVTLGQPVSISCRSSKSLLYKDGKTYLNWFLQRPGQSPQLLIYLMSTRASGVPDRFSGGGSGTDFTLKISRVEAEDVGVYYCQQLVEYPLTFGQGTKLEIKR
GST-human NOGO-A56 [3]
  Kd: 3.6 nM
  koff: 0.00739 s⁻¹
  kon: 2.05e+06 M⁻¹ s⁻¹
GST-human NOGO-A56 [7]
  EC50 (read off the curve): ~0.08 µg/mL
GST-human NOGO-A56 [11]
  EC50 (read off the curve): ~0.09 µg/mL
GST-human NOGO-A56 [2]
  koff: 0.0089 s⁻¹

B11: H16L17 (antibody, V domains shown)
VH: QVQLVQSGAEVKKPGASVKVSCKASGYTFTSYWMHWVKQRPGQGLEWIGNINPSNGGTNYNEKFKSKATLTVDKSTSTAYMELSSLRSEDTAVYYCELGQGYWGQGTLVTVSS
VL: DIVMTQDPLSLPVTLGQPASISCRSSKSLLYKDGKTYLNWFQQRPGQSPQLLIYLMSTRASGVSDRFSGSGSGTDFTLKISRVEAEDVGVYYCQQLVEYPLTFGQGTKLEIKR
notes: copies: 2 + 2
GST-human NOGO-A56 [9]
  EC50 (read off the curve): ~0.1 µg/mL
